Laboratory results from article PMC9482650, “Quantitative fragmentomics allow affinity mapping of interactomes” (Nature Communications, 2022).

T1: MPP6, Q9NZW5
T1 sequence (Q9NZW5 125-219, limits assumed, looked up): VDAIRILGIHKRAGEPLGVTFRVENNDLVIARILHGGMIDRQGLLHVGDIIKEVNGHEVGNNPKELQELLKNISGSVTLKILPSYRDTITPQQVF

T2: NHERF3_3, Q5T2W1
T2 sequence (Q5T2W1 238-333, limits assumed, looked up): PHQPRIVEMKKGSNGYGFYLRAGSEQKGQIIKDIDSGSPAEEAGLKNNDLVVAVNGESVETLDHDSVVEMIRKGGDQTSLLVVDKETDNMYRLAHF

T3: SNTG2, Q9NY99
T3 sequence (Q9NY99 68-166, limits assumed, looked up): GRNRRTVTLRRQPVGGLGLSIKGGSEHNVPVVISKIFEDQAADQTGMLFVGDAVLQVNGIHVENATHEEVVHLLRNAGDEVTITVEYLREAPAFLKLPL

T4: TIAM2, Q8IVF5
T4 sequence (Q8IVF5 885-986, limits assumed, looked up): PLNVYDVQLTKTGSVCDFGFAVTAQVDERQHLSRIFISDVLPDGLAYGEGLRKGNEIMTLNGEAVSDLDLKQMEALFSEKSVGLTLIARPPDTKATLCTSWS

T5: LRRC7, Q96NW7
T5 sequence (Q96NW7 1440-1537, limits assumed, looked up): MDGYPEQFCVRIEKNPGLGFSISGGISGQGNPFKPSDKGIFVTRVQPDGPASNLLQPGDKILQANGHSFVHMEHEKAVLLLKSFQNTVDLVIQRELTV

T6: NHERF3_1, Q5T2W1
T6 sequence (Q5T2W1 4-100, limits assumed, looked up): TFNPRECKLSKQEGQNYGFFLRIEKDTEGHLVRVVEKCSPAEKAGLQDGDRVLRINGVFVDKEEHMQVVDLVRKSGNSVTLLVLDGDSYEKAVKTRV

T7: PARD3B_1, Q8TEW8
T7 sequence (Q8TEW8 196-299, limits assumed, looked up): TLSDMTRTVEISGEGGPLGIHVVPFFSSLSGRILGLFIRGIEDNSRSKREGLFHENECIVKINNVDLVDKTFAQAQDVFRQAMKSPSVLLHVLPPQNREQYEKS

T8: SNTG1, Q9NSN8
T8 sequence (Q9NSN8 52-150, limits assumed, looked up): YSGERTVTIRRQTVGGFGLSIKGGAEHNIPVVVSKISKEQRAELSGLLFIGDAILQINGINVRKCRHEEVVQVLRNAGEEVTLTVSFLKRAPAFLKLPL


Target: SCRIB_3, Q14160
Experiment: holdup assay
Design: key: below the threshold = too weak to quantify, mostly under pKd 3.1 to 4
Settings: plain residues with an end cap or a label only (N-terminal biotin on a linker: ado-ado)

Sequence of SCRIB_3, Q14160 (Q14160 999-1103): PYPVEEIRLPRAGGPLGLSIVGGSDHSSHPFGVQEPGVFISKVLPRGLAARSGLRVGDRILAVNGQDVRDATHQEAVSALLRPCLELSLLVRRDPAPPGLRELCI

pKd	Binder
below the threshold	HLRARKSEWV [GJD4, Q96KN9]
4.73	DDPSTAETVL [ABCA7, Q8IZY2]

Target: IL16_4, Q14005
Experiment: holdup assay
Design: key: below the threshold = too weak to quantify, mostly under pKd 3.1 to 4
Settings: plain residues with an end cap or a label only (N-terminal biotin on a linker: ado-ado)

Sequence of IL16_4, Q14005 (Q14005 1229-1329): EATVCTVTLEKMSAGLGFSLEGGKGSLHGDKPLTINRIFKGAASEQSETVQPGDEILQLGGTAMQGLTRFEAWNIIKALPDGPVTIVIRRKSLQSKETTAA

pKd	Binder
below the threshold	HLRARKSEWV [GJD4, Q96KN9]
below the threshold	DDPSTAETVL [ABCA7, Q8IZY2]

Target: T1, MPP6, Q9NZW5
Experiment: holdup assay
Design: key: below the threshold = too weak to quantify, mostly under pKd 3.1 to 4
Settings: plain residues with an end cap or a label only (N-terminal biotin on a linker: ado-ado)

pKd	Binder
below the threshold	HLRARKSEWV [GJD4, Q96KN9]
below the threshold	DDPSTAETVL [ABCA7, Q8IZY2]

Target: DLG4_2, P78352
Experiment: holdup assay
Design: key: below the threshold = too weak to quantify, mostly under pKd 3.1 to 4
Settings: plain residues with an end cap or a label only (N-terminal biotin on a linker: ado-ado)

Sequence of DLG4_2, P78352 (P78352 155-259): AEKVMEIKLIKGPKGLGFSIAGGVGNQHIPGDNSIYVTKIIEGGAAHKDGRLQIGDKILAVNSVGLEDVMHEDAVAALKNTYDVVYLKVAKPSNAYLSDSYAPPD

pKd	Binder
4.11	HLRARKSEWV [GJD4, Q96KN9]
3.7	DDPSTAETVL [ABCA7, Q8IZY2]

Target: LDB3, O75112
Experiment: holdup assay
Design: key: below the threshold = too weak to quantify, mostly under pKd 3.1 to 4
Settings: plain residues with an end cap or a label only (N-terminal biotin on a linker: ado-ado)

Sequence of LDB3, O75112 (O75112 1-94): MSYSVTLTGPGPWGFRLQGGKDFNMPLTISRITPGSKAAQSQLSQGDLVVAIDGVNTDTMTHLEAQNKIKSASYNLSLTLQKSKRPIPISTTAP

pKd	Binder
below the threshold	HLRARKSEWV [GJD4, Q96KN9]
below the threshold	DDPSTAETVL [ABCA7, Q8IZY2]

Target: T2, NHERF3_3, Q5T2W1
Experiment: holdup assay
Design: key: below the threshold = too weak to quantify, mostly under pKd 3.1 to 4
Settings: plain residues with an end cap or a label only (N-terminal biotin on a linker: ado-ado)

pKd	Binder
below the threshold	HLRARKSEWV [GJD4, Q96KN9]
below the threshold	DDPSTAETVL [ABCA7, Q8IZY2]

Target: TJP1_3, Q07157
Experiment: holdup assay
Design: key: below the threshold = too weak to quantify, mostly under pKd 3.1 to 4
Settings: plain residues with an end cap or a label only (N-terminal biotin on a linker: ado-ado)

Sequence of TJP1_3, Q07157 (Q07157 416-512): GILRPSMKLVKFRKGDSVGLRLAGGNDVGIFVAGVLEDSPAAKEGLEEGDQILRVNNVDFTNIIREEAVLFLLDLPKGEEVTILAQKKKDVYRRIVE

pKd	Binder
4.67	HLRARKSEWV [GJD4, Q96KN9]
below the threshold	DDPSTAETVL [ABCA7, Q8IZY2]

Target: T3, SNTG2, Q9NY99
Experiment: holdup assay
Design: key: below the threshold = too weak to quantify, mostly under pKd 3.1 to 4
Settings: plain residues with an end cap or a label only (N-terminal biotin on a linker: ado-ado)

pKd	Binder
below the threshold	HLRARKSEWV [GJD4, Q96KN9]
4.19	DDPSTAETVL [ABCA7, Q8IZY2]

Target: T4, TIAM2, Q8IVF5
Experiment: holdup assay
Design: key: below the threshold = too weak to quantify, mostly under pKd 3.1 to 4
Settings: plain residues with an end cap or a label only (N-terminal biotin on a linker: ado-ado)

pKd	Binder
4.1	HLRARKSEWV [GJD4, Q96KN9]
3.99	DDPSTAETVL [ABCA7, Q8IZY2]

Target: Inadl_1, Q8NI35
Experiment: holdup assay
Design: key: below the threshold = too weak to quantify, mostly under pKd 3.1 to 4
Settings: plain residues with an end cap or a label only (N-terminal biotin on a linker: ado-ado)

Sequence of Inadl_1, Q8NI35 (Q8NI35 113-229): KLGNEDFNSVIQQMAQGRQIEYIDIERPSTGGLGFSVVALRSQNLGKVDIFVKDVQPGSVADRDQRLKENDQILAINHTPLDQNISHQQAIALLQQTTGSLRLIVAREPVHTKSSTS

pKd	Binder
below the threshold	HLRARKSEWV [GJD4, Q96KN9]
below the threshold	DDPSTAETVL [ABCA7, Q8IZY2]

Target: T5, LRRC7, Q96NW7
Experiment: holdup assay
Design: key: below the threshold = too weak to quantify, mostly under pKd 3.1 to 4
Settings: plain residues with an end cap or a label only (N-terminal biotin on a linker: ado-ado)

pKd	Binder
3.81	HLRARKSEWV [GJD4, Q96KN9]
below the threshold	DDPSTAETVL [ABCA7, Q8IZY2]

Target: SCRIB_1, Q14160
Experiment: holdup assay
Design: key: below the threshold = too weak to quantify, mostly under pKd 3.1 to 4
Settings: plain residues with an end cap or a label only (N-terminal biotin on a linker: ado-ado)

Sequence of SCRIB_1, Q14160 (Q14160 718-814): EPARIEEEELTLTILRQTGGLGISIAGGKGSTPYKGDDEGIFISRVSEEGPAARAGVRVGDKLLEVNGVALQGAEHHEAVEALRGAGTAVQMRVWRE

pKd	Binder
below the threshold	HLRARKSEWV [GJD4, Q96KN9]
4.37	DDPSTAETVL [ABCA7, Q8IZY2]

Target: GRASP, Q7Z6J2
Experiment: holdup assay
Design: key: below the threshold = too weak to quantify, mostly under pKd 3.1 to 4
Settings: plain residues with an end cap or a label only (N-terminal biotin on a linker: ado-ado)

Sequence of GRASP, Q7Z6J2 (Q7Z6J2 96-193): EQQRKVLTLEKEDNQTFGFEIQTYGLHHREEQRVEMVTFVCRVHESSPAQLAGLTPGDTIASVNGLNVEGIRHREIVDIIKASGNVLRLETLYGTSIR

pKd	Binder
4.01	HLRARKSEWV [GJD4, Q96KN9]
below the threshold	DDPSTAETVL [ABCA7, Q8IZY2]

Target: DLG1_2, Q12959
Experiment: holdup assay
Design: key: below the threshold = too weak to quantify, mostly under pKd 3.1 to 4
Settings: plain residues with an end cap or a label only (N-terminal biotin on a linker: ado-ado)

Sequence of DLG1_2, Q12959 (Q12959 314-412): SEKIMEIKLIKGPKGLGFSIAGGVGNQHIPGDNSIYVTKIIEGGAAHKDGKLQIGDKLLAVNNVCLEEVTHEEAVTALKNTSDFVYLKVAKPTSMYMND

pKd	Binder
4.18	HLRARKSEWV [GJD4, Q96KN9]
3.78	DDPSTAETVL [ABCA7, Q8IZY2]

Target: T6, NHERF3_1, Q5T2W1
Experiment: holdup assay
Design: key: below the threshold = too weak to quantify, mostly under pKd 3.1 to 4
Settings: plain residues with an end cap or a label only (N-terminal biotin on a linker: ado-ado)

pKd	Binder
4.08	HLRARKSEWV [GJD4, Q96KN9]
4.64	DDPSTAETVL [ABCA7, Q8IZY2]

Target: IL16_1, Q14005
Experiment: holdup assay
Design: key: below the threshold = too weak to quantify, mostly under pKd 3.1 to 4
Settings: plain residues with an end cap or a label only (N-terminal biotin on a linker: ado-ado)

Sequence of IL16_1, Q14005 (Q14005 210-306): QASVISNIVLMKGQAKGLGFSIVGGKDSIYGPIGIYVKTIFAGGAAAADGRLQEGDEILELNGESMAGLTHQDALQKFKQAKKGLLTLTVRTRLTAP

pKd	Binder
below the threshold	HLRARKSEWV [GJD4, Q96KN9]
below the threshold	DDPSTAETVL [ABCA7, Q8IZY2]

Target: PARD3_3, Q8TEW0
Experiment: holdup assay
Design: key: below the threshold = too weak to quantify, mostly under pKd 3.1 to 4
Settings: plain residues with an end cap or a label only (N-terminal biotin on a linker: ado-ado)

Sequence of PARD3_3, Q8TEW0 (Q8TEW0 582-685): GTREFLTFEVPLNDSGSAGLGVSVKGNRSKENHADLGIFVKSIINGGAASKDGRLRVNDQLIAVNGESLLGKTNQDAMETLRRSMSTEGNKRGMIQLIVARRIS

pKd	Binder
below the threshold	HLRARKSEWV [GJD4, Q96KN9]
4.56	DDPSTAETVL [ABCA7, Q8IZY2]

Target: NHERF4_4, Q86UT5
Experiment: holdup assay
Design: key: below the threshold = too weak to quantify, mostly under pKd 3.1 to 4
Settings: plain residues with an end cap or a label only (N-terminal biotin on a linker: ado-ado)

Sequence of NHERF4_4, Q86UT5 (Q86UT5 464-550): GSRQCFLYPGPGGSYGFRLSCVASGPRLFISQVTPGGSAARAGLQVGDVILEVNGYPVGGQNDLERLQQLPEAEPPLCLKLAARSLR

pKd	Binder
below the threshold	HLRARKSEWV [GJD4, Q96KN9]
below the threshold	DDPSTAETVL [ABCA7, Q8IZY2]

Target: T7, PARD3B_1, Q8TEW8
Experiment: holdup assay
Design: key: below the threshold = too weak to quantify, mostly under pKd 3.1 to 4
Settings: plain residues with an end cap or a label only (N-terminal biotin on a linker: ado-ado)

pKd	Binder
below the threshold	HLRARKSEWV [GJD4, Q96KN9]
4.65	DDPSTAETVL [ABCA7, Q8IZY2]

Target: Inadl_3, Q8NI35
Experiment: holdup assay
Design: key: below the threshold = too weak to quantify, mostly under pKd 3.1 to 4
Settings: plain residues with an end cap or a label only (N-terminal biotin on a linker: ado-ado)

Sequence of Inadl_3, Q8NI35 (Q8NI35 359-469): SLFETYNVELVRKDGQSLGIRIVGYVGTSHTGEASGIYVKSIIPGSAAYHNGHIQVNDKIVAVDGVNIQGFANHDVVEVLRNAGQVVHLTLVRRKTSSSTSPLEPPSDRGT

pKd	Binder
below the threshold	HLRARKSEWV [GJD4, Q96KN9]
3.73	DDPSTAETVL [ABCA7, Q8IZY2]

Target: DLG4_3, P78352
Experiment: holdup assay
Design: key: below the threshold = too weak to quantify, mostly under pKd 3.1 to 4
Settings: plain residues with an end cap or a label only (N-terminal biotin on a linker: ado-ado)

Sequence of DLG4_3, P78352 (P78352 306-403): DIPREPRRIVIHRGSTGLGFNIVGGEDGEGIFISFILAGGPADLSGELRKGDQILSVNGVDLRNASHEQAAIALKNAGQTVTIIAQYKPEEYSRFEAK

pKd	Binder
below the threshold	HLRARKSEWV [GJD4, Q96KN9]
below the threshold	DDPSTAETVL [ABCA7, Q8IZY2]

Target: DLG1_3, Q12959
Experiment: holdup assay
Design: key: below the threshold = too weak to quantify, mostly under pKd 3.1 to 4
Settings: plain residues with an end cap or a label only (N-terminal biotin on a linker: ado-ado)

Sequence of DLG1_3, Q12959 (Q12959 457-571): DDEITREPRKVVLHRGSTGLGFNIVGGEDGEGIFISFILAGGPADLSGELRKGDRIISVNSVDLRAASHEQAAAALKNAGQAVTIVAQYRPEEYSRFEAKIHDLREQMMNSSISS

pKd	Binder
below the threshold	HLRARKSEWV [GJD4, Q96KN9]
below the threshold	DDPSTAETVL [ABCA7, Q8IZY2]

Target: ARHGEF12, Q9NZN5-2
Experiment: holdup assay
Design: key: below the threshold = too weak to quantify, mostly under pKd 3.1 to 4
Settings: plain residues with an end cap or a label only (N-terminal biotin on a linker: ado-ado)

Sequence of ARHGEF12, Q9NZN5-2 (Q9NZN5 other isoform, or with tags, fused parts or gaps): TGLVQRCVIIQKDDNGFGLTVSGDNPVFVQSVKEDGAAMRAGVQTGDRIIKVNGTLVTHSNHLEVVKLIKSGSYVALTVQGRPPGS

pKd	Binder
below the threshold	HLRARKSEWV [GJD4, Q96KN9]
4.63	DDPSTAETVL [ABCA7, Q8IZY2]

Target: MAST2, Q6P0Q8
Experiment: holdup assay
Design: key: below the threshold = too weak to quantify, mostly under pKd 3.1 to 4
Settings: plain residues with an end cap or a label only (N-terminal biotin on a linker: ado-ado)

Sequence of MAST2, Q6P0Q8 (Q6P0Q8 1099-1202): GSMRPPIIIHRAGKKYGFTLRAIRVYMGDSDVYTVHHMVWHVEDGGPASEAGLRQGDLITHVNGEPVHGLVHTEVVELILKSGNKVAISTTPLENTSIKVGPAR

pKd	Binder
below the threshold	HLRARKSEWV [GJD4, Q96KN9]
5.64	DDPSTAETVL [ABCA7, Q8IZY2]

Target: LIMK2, P53671
Experiment: holdup assay
Design: key: below the threshold = too weak to quantify, mostly under pKd 3.1 to 4
Settings: plain residues with an end cap or a label only (N-terminal biotin on a linker: ado-ado)

Sequence of LIMK2, P53671 (P53671 143-248): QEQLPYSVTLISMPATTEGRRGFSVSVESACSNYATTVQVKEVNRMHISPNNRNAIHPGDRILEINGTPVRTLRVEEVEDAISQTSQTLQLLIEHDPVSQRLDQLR

pKd	Binder
below the threshold	HLRARKSEWV [GJD4, Q96KN9]
below the threshold	DDPSTAETVL [ABCA7, Q8IZY2]

Target: PTPN3, P26045
Experiment: holdup assay
Design: key: below the threshold = too weak to quantify, mostly under pKd 3.1 to 4
Settings: plain residues with an end cap or a label only (N-terminal biotin on a linker: ado-ado)

Sequence of PTPN3, P26045 (P26045 505-587): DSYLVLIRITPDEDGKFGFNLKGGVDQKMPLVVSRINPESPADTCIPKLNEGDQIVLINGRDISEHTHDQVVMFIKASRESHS

pKd	Binder
3.99	HLRARKSEWV [GJD4, Q96KN9]
4.83	DDPSTAETVL [ABCA7, Q8IZY2]

Target: GRIP2_6, Q9C0E4
Experiment: holdup assay
Design: key: below the threshold = too weak to quantify, mostly under pKd 3.1 to 4
Settings: plain residues with an end cap or a label only (N-terminal biotin on a linker: ado-ado)

Sequence of GRIP2_6, Q9C0E4 (Q9C0E4 648-740): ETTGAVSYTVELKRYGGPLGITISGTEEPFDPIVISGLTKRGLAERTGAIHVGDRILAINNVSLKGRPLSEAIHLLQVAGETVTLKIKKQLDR

pKd	Binder
below the threshold	HLRARKSEWV [GJD4, Q96KN9]
below the threshold	DDPSTAETVL [ABCA7, Q8IZY2]

Target: LAP2, Q96RT1
Experiment: holdup assay
Design: key: below the threshold = too weak to quantify, mostly under pKd 3.1 to 4
Settings: plain residues with an end cap or a label only (N-terminal biotin on a linker: ado-ado)

Sequence of LAP2, Q96RT1 (Q96RT1 other isoform, or with tags, fused parts or gaps): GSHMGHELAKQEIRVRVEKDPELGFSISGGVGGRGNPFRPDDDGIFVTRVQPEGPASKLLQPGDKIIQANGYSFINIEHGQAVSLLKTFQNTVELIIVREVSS

pKd	Binder
4.11	HLRARKSEWV [GJD4, Q96KN9]
3.71	DDPSTAETVL [ABCA7, Q8IZY2]

Target: T8, SNTG1, Q9NSN8
Experiment: holdup assay
Design: key: below the threshold = too weak to quantify, mostly under pKd 3.1 to 4
Settings: plain residues with an end cap or a label only (N-terminal biotin on a linker: ado-ado)

pKd	Binder
3.6	HLRARKSEWV [GJD4, Q96KN9]
3.66	DDPSTAETVL [ABCA7, Q8IZY2]

Target: PICK1, Q9NRD5
Experiment: holdup assay
Design: key: below the threshold = too weak to quantify, mostly under pKd 3.1 to 4
Settings: plain residues with an end cap or a label only (N-terminal biotin on a linker: ado-ado)

Sequence of PICK1, Q9NRD5 (Q9NRD5 17-115): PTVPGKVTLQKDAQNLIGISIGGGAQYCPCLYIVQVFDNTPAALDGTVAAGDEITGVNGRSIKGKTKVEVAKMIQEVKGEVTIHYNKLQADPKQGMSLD

pKd	Binder
below the threshold	HLRARKSEWV [GJD4, Q96KN9]
below the threshold	DDPSTAETVL [ABCA7, Q8IZY2]
